Key:
ヒトCLDN1タンパク質 = molecular target: T1, ヒトCLDN1タンパク質 (human, UniProt O95832 1-211); assay: immunohistochemistry on paraffin sections of HEK293T cells expressing the CLDN
T1 construct: whole, on cells; Expressed with Venus in HEK293T cells; formalin-fixed paraffin sections of cell pellets
T1 sequence (looked up): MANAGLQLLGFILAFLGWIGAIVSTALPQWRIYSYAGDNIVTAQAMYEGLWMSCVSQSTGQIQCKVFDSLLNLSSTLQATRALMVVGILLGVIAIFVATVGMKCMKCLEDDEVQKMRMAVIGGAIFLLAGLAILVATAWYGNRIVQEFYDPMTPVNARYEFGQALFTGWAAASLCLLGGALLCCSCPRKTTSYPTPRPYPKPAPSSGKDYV

ヒトCLDN4タンパク質 = molecular target: T2, ヒトCLDN4タンパク質 (human, UniProt O14493 1-209); assay: as above
T2 construct: whole, on cells; Expressed with Venus in HEK293T cells; formalin-fixed paraffin sections of cell pellets
T2 sequence (looked up): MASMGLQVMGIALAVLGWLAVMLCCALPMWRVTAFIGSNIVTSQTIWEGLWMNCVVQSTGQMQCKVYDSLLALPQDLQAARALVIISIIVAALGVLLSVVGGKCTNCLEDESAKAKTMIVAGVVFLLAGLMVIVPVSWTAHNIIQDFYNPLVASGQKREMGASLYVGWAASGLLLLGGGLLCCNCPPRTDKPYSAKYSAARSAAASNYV

ヒトCLDN5タンパク質 = molecular target: T3, ヒトCLDN5タンパク質 (human, UniProt O00501 1-218); assay: as above
T3 construct: whole, on cells; Expressed with Venus in HEK293T cells; formalin-fixed paraffin sections of cell pellets
T3 sequence (looked up): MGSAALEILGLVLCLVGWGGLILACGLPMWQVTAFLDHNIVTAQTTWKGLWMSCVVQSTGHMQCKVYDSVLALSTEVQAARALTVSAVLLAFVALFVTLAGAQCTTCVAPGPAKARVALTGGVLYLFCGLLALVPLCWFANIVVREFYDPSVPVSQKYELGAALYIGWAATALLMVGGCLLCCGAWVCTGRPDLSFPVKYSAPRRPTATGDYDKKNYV

ヒトCLDN6タンパク質 = molecular target: T4, ヒトCLDN6タンパク質 (human, UniProt P56747 1-220); assay: as above
T4 construct: whole, on cells; Expressed with Venus in HEK293T cells; formalin-fixed paraffin sections of cell pellets
T4 sequence (looked up): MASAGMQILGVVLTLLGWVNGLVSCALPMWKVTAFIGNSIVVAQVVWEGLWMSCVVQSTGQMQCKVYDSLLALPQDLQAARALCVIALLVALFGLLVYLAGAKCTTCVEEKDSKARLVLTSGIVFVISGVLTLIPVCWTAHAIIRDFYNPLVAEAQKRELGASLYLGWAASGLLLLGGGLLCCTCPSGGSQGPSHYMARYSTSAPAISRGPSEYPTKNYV

ヒトCLDN9タンパク質 = molecular target: T5, ヒトCLDN9タンパク質 (human, UniProt O95484 1-217); assay: as above
T5 construct: whole, on cells; Expressed with Venus in HEK293T cells; formalin-fixed paraffin sections of cell pellets; also called CLDN9
T5 sequence (looked up): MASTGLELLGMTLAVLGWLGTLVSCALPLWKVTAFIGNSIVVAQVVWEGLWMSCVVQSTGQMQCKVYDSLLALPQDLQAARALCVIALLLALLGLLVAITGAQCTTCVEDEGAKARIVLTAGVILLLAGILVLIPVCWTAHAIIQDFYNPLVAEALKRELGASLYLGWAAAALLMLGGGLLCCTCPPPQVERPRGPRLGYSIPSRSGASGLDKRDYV

ヒトCLDN15タンパク質 = molecular target: T6, ヒトCLDN15タンパク質 (human, UniProt P56746 1-228); assay: immunohistochemistry on paraffin sections of CLDN-expressing cell pellets and of patients' malignant pleural mesothelioma tissue
T6 construct: Expressed in HEK293T cells from a plasmid that also expresses Venus; 228 residues, four-pass membrane protein; also called クローディン15; WT
T6 sequence: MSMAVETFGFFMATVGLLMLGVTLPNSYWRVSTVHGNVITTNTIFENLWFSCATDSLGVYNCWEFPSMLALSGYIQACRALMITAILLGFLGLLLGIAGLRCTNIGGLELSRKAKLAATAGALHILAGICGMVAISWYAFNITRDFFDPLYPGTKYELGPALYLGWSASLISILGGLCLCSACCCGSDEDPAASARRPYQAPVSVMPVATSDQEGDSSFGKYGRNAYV

binding result (ヒトCLDN1タンパク質): no binding
binding result (ヒトCLDN4タンパク質): no binding
binding result (ヒトCLDN5タンパク質): no binding
binding result (ヒトCLDN6タンパク質): no binding
binding result (ヒトCLDN9タンパク質): no binding
binding result (ヒトCLDN15タンパク質): binds
B1: ラット抗ヒトCLDN15モノクローナル抗体クローン2C11 (antibody, V domains shown)
VH: AVQLVESGGGLVQPKESLKISCAASGFTFSNAAMYWVRQAPGKGLEWVARIRTKPNNYATYYADSVKGRFTISRDDSKSMVYLQMDNLKTEDSAMYYCTAPAYYFGYWGQGVMVTVSS
VL: DVVLTQTPPTLSATIGQSVSISCRSSQSLLHSNGNTYLHWLLQRPGQSPQLLIYLVSRLESGVPNRFSGSGSGTDFTLKISGVEAEDLGVYYCVQGTHAPWTFGGGTKLELK
notes: Rat monoclonal antibody from a hybridoma, used as culture supernatant and detected with anti-rat IgG-HRP; also called 2C11抗体; 抗CLDN15モノクローナル抗体(2C11)

— patent JP2021042960A (dated 2021)
